Measured values as given in paper PMC7749165, “The δ subunit and NTPase HelD institute a two-pronged mechanism for RNA polymerase recycling” (Nature Communications, 2020).

B1: δ^NTD (N-terminal domain of the RNAP δ subunit) (protein)
chain: MGIKQYSQEELKEMALVEIAHELFEEHKKPVPFQELLNEIASLLGVKKEELGDRIAQFYTDLNIDGRFLALSDQTWGLRSWYPYDQLDEE
B2: RNAP β subunit (natural protein, B. subtilis (endogenous), UniProt P37870 1-1193, looked up)
chain: MTGQLVQYGRHRQRRSYARISEVLELPNLIEIQTSSYQWFLDEGLREMFQDISPIEDFTGNLSLEFIDYSLGEPKYPVEESKERDVTYSAPLRVKVRLINKETGEVKDQDVFMGDFPIMTDTGTFIINGAERVIVSQLVRSPSVYFSGKVDKNGKKGFTATVIPNRGAWLEYETDAKDVVYVRIDRTRKLPVTVLLRALGFGSDQEILDLIGENEYLRNTLDKDNTENSDKALLEIYERLRPGEPPTVENAKSLLDSRFFDPKRYDLANVGRYKINKKLHIKNRLFNQRLAETLVDPETGEILAEKGQILDRRTLDKVLPYLENGIGFRKLYPNGGVVEDEVTLQSIKIFAPTDQEGEQVINVIGNAYIEEEIKNITPADIISSISYFFNLLHGVGDTDDIDHLGNRRLRSVGELLQNQFRIGLSRMERVVRERMSIQDTNTITPQQLINIRPVIASIKEFFGSSQLSQFMDQTNPLAELTHKRRLSALGPGGLTRERAGMEVRDVHYSHYGRMCPIETPEGPNIGLINSLSSYAKVNRFGFIETPYRRVDPETGKVTGRIDYLTADEEDNYVVAQANARLDDEGAFIDDSIVARFRGENTVVSRNRVDYMDVSPKQVVSAATACIPFLENDDSNRALMGANMQRQAVPLMQPEAPFVGTGMEYVSGKDSGAAVICKHPGIVERVEAKNVWVRRYEEVDGQKVKGNLDKYSLLKFVRSNQGTCYNQRPIVSVGDEVVKGEILADGPSMELGELALGRNVMVGFMTWDGYNYEDAIIMSERLVKDDVYTSIHIEEYESEARDTKLGPEEITRDIPNVGEDALRNLDDRGIIRIGAEVKDGDLLVGKVTPKGVTELTAEERLLHAIFGEKAREVRDTSLRVPHGGGGIIHDVKVFNREDGDELPPGVNQLVRVYIVQKRKISEGDKMAGRHGNKGVISKILPEEDMPYLPDGTPIDIMLNPLGVPSRMNIGQVLELHMGMAARYLGIHIASPVFDGAREEDVWETLEEAGMSRDAKTVLYDGRTGEPFDNRVSVGIMYMIKLAHMVDDKLHARSTGPYSLVTQQPLGGKAQFGGQRFGEMEVWALEAYGAAYTLQEILTVKSDDVVGRVKTYEAIVKGDNVPEPGVPESFKVLIKELQSLGMDVKILSGDEEEIEMRDLEDEEDAKQADGLALSGDEEPEETASADVERDVVTKE
notes: RNAP β subunit, B. subtilis; source: endogenous, B. subtilis; in lysate and purified as part of RNAP
B3: RNAP α subunit (natural protein, B. subtilis (endogenous), UniProt P20429 1-314, looked up)
chain: MIEIEKPKIETVEISDDAKFGKFVVEPLERGYGTTLGNSLRRILLSSLPGAAVTSIQIDGVLHEFSTIEGVVEDVTTIILHIKKLALKIYSDEEKTLEIDVQGEGTVTAADITHDSDVEILNPDLHIATLGENASFRVRLTAQRGRGYTPADANKRDDQPIGVIPIDSIYTPVSRVSYQVENTRVGQVANYDKLTLDVWTDGSTGPKEAIALGSKILTEHLNIFVGLTDEAQHAEIMVEKEEDQKEKVLEMTIEELDLSVRSYNCLKRAGINTVQELANKTEEDMMKVRNLGRKSLEEVKAKLEELGLGLRKDD
notes: RNAP α subunit, B. subtilis; only the N-terminal domains have density in the structures; also called α1; α2; source: endogenous, B. subtilis; in lysate and purified as part of RNAP
B4: RNAP δ subunit, endogenous (natural protein, B. subtilis (endogenous), UniProt P12464 1-173, looked up)
chain: MGIKQYSQEELKEMALVEIAHELFEEHKKPVPFQELLNEIASLLGVKKEELGDRIAQFYTDLNIDGRFLALSDQTWGLRSWYPYDQLDEETQPTVKAKKKKAKKAVEEDLDLDEFEEIDEDDLDLDEVEEELDLEADDFDEEDLDEDDDDLEIEEDIIDEDDEDYDDEEEEIK
notes: RNAP δ subunit, B. subtilis; NTD residues 1-90, CTR residues 91-173; source: endogenous, B. subtilis MH5636 or LK782; in lysate and purified as part of RNAP

Assays:
[1] = target: T1, HelD (recombinant B. subtilis NTPase HelD) (Bacillus subtilis (strain 168), UniProt O32215); assay: analytical SEC with SDS-PAGE
T1 chain: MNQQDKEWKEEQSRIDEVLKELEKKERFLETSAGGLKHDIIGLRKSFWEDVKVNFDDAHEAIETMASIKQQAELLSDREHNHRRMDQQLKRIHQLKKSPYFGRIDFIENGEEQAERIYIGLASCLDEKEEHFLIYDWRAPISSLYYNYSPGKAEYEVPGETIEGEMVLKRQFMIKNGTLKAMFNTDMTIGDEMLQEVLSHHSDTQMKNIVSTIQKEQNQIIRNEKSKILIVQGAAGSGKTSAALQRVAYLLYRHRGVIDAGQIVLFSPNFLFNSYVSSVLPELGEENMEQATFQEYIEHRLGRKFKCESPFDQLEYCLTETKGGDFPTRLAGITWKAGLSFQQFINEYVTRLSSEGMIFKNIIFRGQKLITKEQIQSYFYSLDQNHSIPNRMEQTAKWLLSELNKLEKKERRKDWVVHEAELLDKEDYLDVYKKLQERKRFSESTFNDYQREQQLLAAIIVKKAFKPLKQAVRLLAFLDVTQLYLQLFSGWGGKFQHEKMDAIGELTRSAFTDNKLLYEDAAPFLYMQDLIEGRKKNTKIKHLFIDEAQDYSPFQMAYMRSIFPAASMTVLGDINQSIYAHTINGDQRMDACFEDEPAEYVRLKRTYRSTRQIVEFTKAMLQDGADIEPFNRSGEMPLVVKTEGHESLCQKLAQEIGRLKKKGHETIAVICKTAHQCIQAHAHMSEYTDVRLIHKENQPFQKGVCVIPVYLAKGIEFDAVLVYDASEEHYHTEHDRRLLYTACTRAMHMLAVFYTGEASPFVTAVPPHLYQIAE

[2] = target: T2, RNAP β′ subunit with chromosomally encoded C-terminal His10-tag (B. subtilis, UniProt P37871 1-1199); assay: co-purification; RNAP captured from lysates of stationary phase B. subtilis by the C-terminal His10-tag on β′ (Ni-NTA), then heparin column and SEC, 4 °C; content of the fractions told from gels (strains MH5636, LK782, LK1032); settings: partners not purified
T2 construct: RNAP β′ subunit, B. subtilis; source: B. subtilis strains MH5636, LK782, LK1032; in lysate and purified as part of RNAP (Ni-NTA, heparin, SEC); not shown: His10, C-terminal, kept

[3] = target: T2, RNAP β′ subunit with chromosomally …; assay: SEC; HelD release assay: the same RNAP-HelD complex mixed with 5 mM Mg^2+-ATPγS, AMPPNP or ATP in buffer I; Superdex 200 Increase PC 3.2, 4 °C; fractions on SDS-PAGE; settings: both partners purified

T2 sequence (P37871 whole entry): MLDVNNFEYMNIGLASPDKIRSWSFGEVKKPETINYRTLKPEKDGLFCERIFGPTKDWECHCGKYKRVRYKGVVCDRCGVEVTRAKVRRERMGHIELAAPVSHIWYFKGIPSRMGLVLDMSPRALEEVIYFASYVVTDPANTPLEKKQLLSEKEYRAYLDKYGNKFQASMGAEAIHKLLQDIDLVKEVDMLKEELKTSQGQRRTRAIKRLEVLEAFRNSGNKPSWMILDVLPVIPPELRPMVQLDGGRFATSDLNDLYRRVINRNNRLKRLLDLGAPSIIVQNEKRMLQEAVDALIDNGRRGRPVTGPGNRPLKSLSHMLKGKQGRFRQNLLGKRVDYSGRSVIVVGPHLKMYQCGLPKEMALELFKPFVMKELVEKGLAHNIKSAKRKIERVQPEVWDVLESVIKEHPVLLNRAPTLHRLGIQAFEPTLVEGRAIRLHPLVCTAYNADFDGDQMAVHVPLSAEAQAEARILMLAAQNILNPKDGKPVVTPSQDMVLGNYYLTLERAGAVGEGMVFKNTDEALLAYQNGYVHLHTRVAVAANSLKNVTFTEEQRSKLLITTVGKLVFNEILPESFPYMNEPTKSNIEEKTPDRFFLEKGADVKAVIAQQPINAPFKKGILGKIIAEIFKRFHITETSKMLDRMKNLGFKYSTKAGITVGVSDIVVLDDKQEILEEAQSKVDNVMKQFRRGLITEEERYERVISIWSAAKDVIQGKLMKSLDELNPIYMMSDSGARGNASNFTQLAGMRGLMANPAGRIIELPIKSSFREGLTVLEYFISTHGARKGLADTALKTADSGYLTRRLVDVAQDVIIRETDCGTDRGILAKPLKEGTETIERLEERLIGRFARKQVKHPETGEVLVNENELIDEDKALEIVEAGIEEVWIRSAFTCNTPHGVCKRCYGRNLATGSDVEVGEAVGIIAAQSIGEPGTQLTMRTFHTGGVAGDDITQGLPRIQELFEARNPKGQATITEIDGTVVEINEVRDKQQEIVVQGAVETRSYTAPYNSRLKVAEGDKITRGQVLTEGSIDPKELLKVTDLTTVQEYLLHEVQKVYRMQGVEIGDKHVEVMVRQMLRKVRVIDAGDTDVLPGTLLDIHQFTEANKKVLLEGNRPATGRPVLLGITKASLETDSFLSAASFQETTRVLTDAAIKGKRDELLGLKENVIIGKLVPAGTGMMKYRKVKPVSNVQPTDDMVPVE

| Binder | binding result [1] | binding result [2] | binding result [3] |
| --- | --- | --- | --- |
| B1 | no binding |  |  |
| B2 |  | binds |  |
| B3 |  | binds |  |
| B4 | binds |  | binds |
